Assay results taken from article PMC9331509, “Insights into Domain Organization and Regulatory Mechanism of Cystathionine Beta-Synthase from Toxoplasma gondii” (International Journal of Molecular Sciences, 2022).
Values joined by “and” are separate entries in the source; they are usually repeats but may differ in a detail not shown here. Equal entries are not always repeated. Marks after values point to notes of the source that are not given here.

T1: full-length TgCBS (Toxoplasma gondii, UniProt A0A125YSJ9)
T1 construct: gene TGME49_259180; full-length, residues 1-514; N-terminal 6xHis tag; E. coli Rosetta (DE3); ~57 kDa subunit; mainly dimer
T1 sequence (A0A125YSJ9 1-514): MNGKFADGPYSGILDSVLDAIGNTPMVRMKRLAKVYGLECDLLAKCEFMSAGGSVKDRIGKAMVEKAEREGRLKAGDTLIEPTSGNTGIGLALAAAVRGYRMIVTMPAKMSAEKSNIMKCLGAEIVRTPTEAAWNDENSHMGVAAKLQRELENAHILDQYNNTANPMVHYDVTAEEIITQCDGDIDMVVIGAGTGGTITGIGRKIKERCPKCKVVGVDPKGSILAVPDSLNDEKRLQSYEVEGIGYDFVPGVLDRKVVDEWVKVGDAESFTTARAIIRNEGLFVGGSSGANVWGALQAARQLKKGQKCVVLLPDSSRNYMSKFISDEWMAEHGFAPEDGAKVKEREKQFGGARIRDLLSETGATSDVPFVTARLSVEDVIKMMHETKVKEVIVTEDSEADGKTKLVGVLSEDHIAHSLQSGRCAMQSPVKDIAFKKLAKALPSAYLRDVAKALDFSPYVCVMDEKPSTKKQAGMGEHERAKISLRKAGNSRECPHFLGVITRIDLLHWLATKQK


Tests used:
full-length TgCBS = target: T1, full-length TgCBS; experiment: continuous CBL-LDH coupled assay; assay type: biochemical; details: saturating L-Ser and L-Hcys; pH 9, 37 °C; activity after heat pre-treatment or trypsinolysis
TgCBS R353* = target: T2, TgCBS R353* (Toxoplasma gondii, UniProt A0A125YSJ9); experiment: UV-Vis absorption ([…] nm internal aldimine); PLP content by NaOH, […] nm; assay type: binding; details: stoichiometry; covalent internal aldimine, as purified
T2 construct: gene TGME49_259180; C-terminally truncated (stop codon at R353; residues 353-514, Bateman module, removed), residues 1-352; N-terminal 6xHis tag; pET21a, E. coli Rosetta (DE3); 39 kDa; mainly dimer

[1] = target: Proteolysed full-length TgCBS (39 kDa trypsin-resistant core) (Toxoplasma gondii); experiment: SEC; 250 ug TgCBS incubated with trypsin 1:200 (w/w) for 120 min, stopped with a two-fold weight excess of soybean trypsin inhibitor, loaded on Superdex 200 10/300 GL; TgCBS R353* at 0.5 mg/mL run for comparison
[2] = target: the molecule itself; experiment: SEC; Superdex 200 10/300 GL, protein at 1 mg/mL, 20 mM sodium phosphate buffer pH 8.5, 150 mM NaCl, 0.1 mM DTT; calibrated with standard proteins
[3] = target: the molecule itself; experiment: native gel or EMSA; native PAGE at 8, 9, 10 and 12% polyacrylamide, 10 ug/lane, Coomassie staining, Ferguson plot analysis with molecular mass standards

Row | Molecule | continuous CBL-LDH coupled assay (full-length TgCBS) | stoichiometry N [2] | also measured
1 | N[C@@H](CCS)C(=O)O [L-Hcys] | at saturating concentration of L-Ser and L-Hcys in the canonical reaction |  | 
2 | N[C@@H](CO)C(=O)O [L-Ser] | full-length TgCBS (solid triangles) and TgCBS R353* (open circles) on their steady-state initial velocity |  | 
3 | Cc1ncc(COP(=O)(O)O)c(C=O)c1O [PLP] |  |  | PLP per monomer (TgCBS R353*): 0.9 ± 0.1 mol/mol
4 | Proteolysed full-length TgCBS (39 kDa trypsin-resistant core) (from UniProt A0A125YSJ9 1-514) (domain or fragment) |  |  | stoichiometry N [1]: 2
5 | Full-length cystathionine beta-synthase from Toxoplasma gondii (enzyme, UniProt A0A125YSJ9 1-514, looked up, the cited crystal structure PDB 6XWL is of a construct lacking an internal loop (TgCBS Δ466-491); PLP-dependent enzyme; also called TgCBS; full-length TgCBS; source: E. coli Rosetta (DE3), purified (Ni-sepharose); not shown: His6, N-terminal, kept) MNGKFADGPYSGILDSVLDAIGNTPMVRMKRLAKVYGLECDLLAKCEFMSAGGSVKDRIGKAMVEKAEREGRLKAGDTLIEPTSGNTGIGLALAAAVRGYRMIVTMPAKMSAEKSNIMKCLGAEIVRTPTEAAWNDENSHMGVAAKLQRELENAHILDQYNNTANPMVHYDVTAEEIITQCDGDIDMVVIGAGTGGTITGIGRKIKERCPKCKVVGVDPKGSILAVPDSLNDEKRLQSYEVEGIGYDFVPGVLDRKVVDEWVKVGDAESFTTARAIIRNEGLFVGGSSGANVWGALQAARQLKKGQKCVVLLPDSSRNYMSKFISDEWMAEHGFAPEDGAKVKEREKQFGGARIRDLLSETGATSDVPFVTARLSVEDVIKMMHETKVKEVIVTEDSEADGKTKLVGVLSEDHIAHSLQSGRCAMQSPVKDIAFKKLAKALPSAYLRDVAKALDFSPYVCVMDEKPSTKKQAGMGEHERAKISLRKAGNSRECPHFLGVITRIDLLHWLATKQK |  | 2 and 4 | 
6 | TgCBS R353* (TgCBS lacking the C-terminal Bateman module) (domain or fragment, Toxoplasma gondii, UniProt A0A125YSJ9 1-352, looked up, Cystathionine beta-synthase (TgCBS), Toxoplasma gondii, residues 1-352 (catalytic domain and interdomain linker); 39 kDa subunit; made by site-directed mutagenesis on pET21a-TgCBS; also called C-terminally truncated TgCBS; truncated TgCBS; source: E. coli Rosetta (DE3), purified (Ni-sepharose, as the wild-type enzyme); not shown: His6, N-terminal, kept) MNGKFADGPYSGILDSVLDAIGNTPMVRMKRLAKVYGLECDLLAKCEFMSAGGSVKDRIGKAMVEKAEREGRLKAGDTLIEPTSGNTGIGLALAAAVRGYRMIVTMPAKMSAEKSNIMKCLGAEIVRTPTEAAWNDENSHMGVAAKLQRELENAHILDQYNNTANPMVHYDVTAEEIITQCDGDIDMVVIGAGTGGTITGIGRKIKERCPKCKVVGVDPKGSILAVPDSLNDEKRLQSYEVEGIGYDFVPGVLDRKVVDEWVKVGDAESFTTARAIIRNEGLFVGGSSGANVWGALQAARQLKKGQKCVVLLPDSSRNYMSKFISDEWMAEHGFAPEDGAKVKEREKQFGGA |  | 2 and 4 | stoichiometry N [3]: ~4 and ~2
